Assay results reported in US20210403593A1 (TIZONA THERAPEUTICS, published 2021).
Numbering of substitutions follows the chain as printed.

Tests used:
[1] = molecular target: T1, cynomolgus macaque (Macaca fascicularis) CD39 (Macaca fascicularis, UniProt P49961 7-510 (human entry)); assay: flow cytometry, 100 nM IgG, MFI on CHO-cCD39 / MFI on parental CHO;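 also: antibodies bound to the cells for 30 min in PBS, then bound IgG was revealed with a fluorescent goat anti-human IgG secondary antibody, 20 min on ice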
T1 construct: On engineered CHO cells and on primary cyno B cells and monocytes; also called cyno CD39; cCD39
T1 chain: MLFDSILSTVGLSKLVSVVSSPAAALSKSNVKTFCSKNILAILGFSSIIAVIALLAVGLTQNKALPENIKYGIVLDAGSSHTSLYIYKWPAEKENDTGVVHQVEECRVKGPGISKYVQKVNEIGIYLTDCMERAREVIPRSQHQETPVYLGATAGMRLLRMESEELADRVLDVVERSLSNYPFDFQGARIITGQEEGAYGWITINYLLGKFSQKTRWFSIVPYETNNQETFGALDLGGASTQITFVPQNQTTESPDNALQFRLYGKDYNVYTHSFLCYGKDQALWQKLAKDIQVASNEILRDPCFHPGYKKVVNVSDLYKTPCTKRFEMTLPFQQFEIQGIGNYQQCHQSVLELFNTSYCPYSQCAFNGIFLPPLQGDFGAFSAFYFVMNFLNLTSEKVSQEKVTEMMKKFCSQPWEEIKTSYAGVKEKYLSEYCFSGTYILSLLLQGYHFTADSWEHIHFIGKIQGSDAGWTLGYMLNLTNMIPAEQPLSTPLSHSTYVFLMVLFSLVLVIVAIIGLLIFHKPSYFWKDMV

[2] = molecular target: T2, human CD39 (cellular) (human, UniProt P49961 1-510); assay: flow cytometry, 100 nM IgG, MFI on CHO-hCD39 / MFI on parental CHO;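 also: cells exposed to IgG for 30 min on ice in PBS, bound antibody then revealed with a fluorescent goat anti-human IgG secondary (20 min, on ice)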
T2 construct: Same protein on engineered CHO cells and on cells that express it endogenously; also called hCD39; cellular CD39
T2 sequence: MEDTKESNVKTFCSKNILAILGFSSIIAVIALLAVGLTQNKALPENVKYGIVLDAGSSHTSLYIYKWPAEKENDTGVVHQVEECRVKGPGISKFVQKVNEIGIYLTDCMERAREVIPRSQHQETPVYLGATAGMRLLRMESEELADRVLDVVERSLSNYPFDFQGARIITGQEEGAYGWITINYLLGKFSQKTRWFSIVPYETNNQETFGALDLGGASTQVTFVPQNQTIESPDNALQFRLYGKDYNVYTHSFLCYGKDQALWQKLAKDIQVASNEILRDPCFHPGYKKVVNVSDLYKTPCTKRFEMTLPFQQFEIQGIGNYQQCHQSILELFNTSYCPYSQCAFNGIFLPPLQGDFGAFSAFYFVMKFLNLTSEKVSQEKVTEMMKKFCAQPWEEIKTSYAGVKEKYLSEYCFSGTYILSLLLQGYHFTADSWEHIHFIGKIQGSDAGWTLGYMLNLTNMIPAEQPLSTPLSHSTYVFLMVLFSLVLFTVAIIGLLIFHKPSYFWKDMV

B1: 27550 (antibody, human IgG4 S228P, kappa, V domains shown)
VH: EVQLVESGGGLVKPGGSLRLSCAASGFTFSSYSMNWVRQAPGKGLEWVSSISSSSSYIYYADSVKGRFTISRDNAKNSLYLQMNSLRAEDTAVYYCARERRGSLALGMDVWGQGTLVTVSS
VL: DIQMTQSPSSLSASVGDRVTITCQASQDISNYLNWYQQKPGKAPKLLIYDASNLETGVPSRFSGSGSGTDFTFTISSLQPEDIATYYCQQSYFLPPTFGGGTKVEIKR
With B1 the “Cell Binding (FOB)” value [1] was 2870 fold over background and the “Cell Binding (FOB)” value [2] was 2030 fold over background.

B2: 27549 (antibody, human IgG4 S228P, kappa, V domains shown)
VH: QVQLVESGGGVVQPGRSLRLSCAASGFTFSSYGMNWVRQAPGKGLEWVAVIWYDGSNKYYADSVKGRFTISRDNSKNTLYLQMNSLRAEDTAVYYCARDLGGYSYGEPYYYYYGMDVWGQGTTVTVSS
VL: EIVLTQSPGTLSLSPGERATLSCRASQSVSSDYLAWYQQKPGQAPRLLIYGASSRATGIPDRFSGSGSGTDFTLTISRLEPEDFAVYYCQQAHSSPYTFGGGTKVEIKR
In the case of B2, the “Cell Binding (FOB)” value [1] is reported as 566 fold over background and the “Cell Binding (FOB)” value [2] is reported as 822 fold over background.

B3: 27535 (antibody, human IgG4 S228P, kappa, V domains shown)
VH: QVQLVQSGAEVKKPGSSVKVSCKASGGTFSSYAISWVRQAPGQGLEWMGGIIPIFGTANYAQKFQGRVTITADESTSTAYMELSSLRSEDTAVYYCARDTPRWRYHYFDYWGQGTLVTVSS
VL: EIVLTQSPATLSLSPGERATLSCRASQSVSSYLAWYQQKPGQAPRLLIYDASKRATGIPARFSGSGSGTDFTLTISSLEPEDFAVYYCQQVLNYPLTFGGGTKVEIKR
In the case of B3, the “Cell Binding (FOB)” value [1] is reported as 738 fold over background and the “Cell Binding (FOB)” value [2] is reported as 301 fold over background.

B4: 27568 (antibody, human IgG4 S228P, kappa, V domains shown)
VH: QVQLVQSGAEVKKPGSSVKVPCKASGGTFSSYAISWVRQAPEQGLEWMGSIIPIFGTANYAQKFQGRVTITADESTSTAYMELSSLRSEDTAVYYCAGESGGYRDHKLDVWGQGTVVTVSS
VL: B3 VL with K53N, V91S, L92V, N93F, Y94W, L96I
With B4 the “Cell Binding (FOB)” value [1] was 260 fold over background and the “Cell Binding (FOB)” value [2] was 267 fold over background.

B5: 27596 (antibody, human IgG4 S228P, kappa, V domains shown)
VH: B3 VH with T100P, P101L, R102G, W103I, Y105K, Y107W, Y110P
VL: B3 VL with L4M, K53N, V91H, L92T, N93V, Y94W, L96I
B5 was tested, and the “Cell Binding (FOB)” value [1] was 257 fold over background and the “Cell Binding (FOB)” value [2] was 252 fold over background.

B6: 27597 (antibody, human IgG4 S228P, kappa, V domains shown)
VH: QVQLVQSGAEVKKPGSSVKVSCKASGGTFSSYAISWVRQAPGQGLEWMGSIIPIFGTANYAQKFQGRVTITADESTSTAYMELSSLRSEDTAVYYCAREGRGYDSSRYYKFWFDPWGQGTLVTVSS
VL: B3 VL with K53N, V91F, L92V, N93L, Y94W, L96R
With B6 the “Cell Binding (FOB)” value [1] was 908 fold over background and the “Cell Binding (FOB)” value [2] was 799 fold over background.

B7: 27587 (antibody, human IgG4 S228P, kappa, V domains shown)
VH: B4 VH with P21S, E42G, G98R, V116M
VL: B3 VL with V91D, L92V, N93L, Y94W
In the case of B7, the “Cell Binding (FOB)” value [1] is reported as 1400 fold over background and the “Cell Binding (FOB)” value [2] is reported as 1450 fold over background.

B8: 27590 (antibody, V domains shown)
VH: QVQLVQSGAEVKKPGSSVKVSCKASGGTFSNYAISWVRQAPGQGLEWMGGIIPIFGTANYAQKFQGRVTITADESTSTAYMELSSLRSEDTAVYYCARGPTVTATTSIGTHNWFDPWGQGTLVTVSS
VL: EIVLTQSPATLSLSPGERATLSCRASQSVSSYLAWYQQKPGQAPRLLIYDASNRATGIPARFSGSGSGTDFTLTISSLEPEDFAVYYCQQRNFYPPTFGGGTKVEIK
B8 was tested, and the “Cell Binding (FOB)” value [1] was 44 fold over background and the “Cell Binding (FOB)” value [2] was 33 fold over background.

B9: 27579 (antibody, V domains shown)
VH: QVQLVQSGAEVKEPGASVKVSCKAPGYTFTSYYMHWVRQAPGQGLEWMGVINPSGGSTSYAQKFQGRVTMTRDTSTSTVYMELSSLRSEDTAVYYCARGKREGGTEYLRHWGQGTLVTVSS
VL: EIVLTQSPGTLSLSPGERATLSCRASQSVSSSYLAWYQQKPGQAPRLLIYGASSRATGIPDRFSGSGSGTDFTLTISRLEPEDFAVYYCQQYHSYITFGGGTKVEIK
B9 was tested, and the “Cell Binding (FOB)” value [1] was 2670 fold over background and the “Cell Binding (FOB)” value [2] was 1950 fold over background.

B10: 31421 (antibody, V domains shown)
VH: B9 VH with E13K, P25S, T30F, H35Y, S54L, S57G
VL: B9 VL with R24K, Q27E, G51Y, S94R, Y95R
With B10 the “Cell Binding (FOB)” value [1] was 3050 fold over background and the “Cell Binding (FOB)” value [2] was 1080 fold over background.

B11: 31431 (antibody, V domains shown)
VH: B9 VH with E13K, P25S, Y33Q, V50R, S59W
VL: B9 VL with S30A, S54N, A56H, S94G, Y95G
With B11 the “Cell Binding (FOB)” value [1] was 3530 fold over background and the “Cell Binding (FOB)” value [2] was 1240 fold over background.

B12: 31429 (antibody, V domains shown)
VH: B9 VH with E13K, P25S, T30V, Y33F, V50S, S54R
VL: B9 VL with S28Y, G51Y, S54N, Y95G
For B12, the “Cell Binding (FOB)” value [1] was 3800 fold over background and the “Cell Binding (FOB)” value [2] was 1290 fold over background.

B13: 29872 (antibody, V domains shown)
VH: B9 VH with E13K, P25S, T30K, Y33E, V50R, G55V, S59W
VL: B9 VL
notes: also called anti-CD39 antibody 29872
With B13 the “Cell Binding (FOB)” value [1] was 4190 fold over background and the “Cell Binding (FOB)” value [2] was 1450 fold over background.

B14: 27577 (antibody, human IgG4 S228P, kappa, V domains shown)
VH: QVQLVQSGAEVKKPGSSVKVSCKASGGAFSSYAIGWVRQAPGQGLEWMGGIIPTFGTANYAQKFQGRVTITADESTSTAYMELSSLRSEDTAVYYCARDGGGYQHHYFDLWGRGTLVTVSS
VL: EIVMTQSPATLSVSPGERATLSCRASQSVGSNLAWYQQKPGQAPRLLIYGASTRATGIPARFSGSGSGTEFTLTISSLQSEDFAVYYCQQLTKWPLTFGGGTKVEIKR
With B14 the “Cell Binding (FOB)” value [1] was 339 fold over background and the “Cell Binding (FOB)” value [2] was 390 fold over background.

B15: 27589 (antibody, human IgG4 S228P, kappa, V domains shown)
VH: QVQLVQSGAEVKKPGSSVKVSCKASGGTFSSYAISWVRQAPGQGLEWMGGIIPIFGTANYAQKFQGRVTITADESTSTAYMELSSLRSEDTAVYYCARDSGYHRHYSDYWGQGTLVTVSS
VL: DIQMTQSPSTLSASVGDRVTITCRASQSISSWLAWYQQKPGKAPKLLIYKASSLESGVPSRFSGSGSGTEFTLTISSLQPDDFATYYCQQYGLFPITFGGGTKVEIKR
With B15 the “Cell Binding (FOB)” value [1] was 531 fold over background and the “Cell Binding (FOB)” value [2] was 311 fold over background.

B16: 28347 (antibody, V domains shown)
VH: QVQLVQSGAEVKKPGSSVKVSCKASGGTFSSLAISWVRQAPGQGLEWMGGIIPIFGTANYAQKFQGRVTITADESTNTAYMELSSLRSEDTAVYYCARGGAKYASTYGMDVWGQGTTVTVSS
VL: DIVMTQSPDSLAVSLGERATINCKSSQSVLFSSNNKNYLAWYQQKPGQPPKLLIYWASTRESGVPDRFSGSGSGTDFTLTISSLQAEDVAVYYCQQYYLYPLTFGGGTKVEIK
B16 was tested, and the “Cell Binding (FOB)” value [1] was 1340 fold over background and the “Cell Binding (FOB)” value [2] was 1020 fold over background.

B17: 27588 (antibody, V domains shown)
VH: QVQLVQSGAEVKKPGSSVKVSCKASGGTFSNYAISWVRQAPGQGLEWMGGIIPIFGTANYAQKFQGRVTITADESTSTAYMELSSLRSEDTAVYYCARAKRGYDSYGGVYFDYWGQGTLVTVSS
VL: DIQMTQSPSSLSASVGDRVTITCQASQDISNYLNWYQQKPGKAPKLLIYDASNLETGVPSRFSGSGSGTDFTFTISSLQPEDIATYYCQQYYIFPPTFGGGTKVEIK
For B17, the “Cell Binding (FOB)” value [1] was 14 fold over background and the “Cell Binding (FOB)” value [2] was 10 fold over background.

B18: 27536 (antibody, V domains shown)
VH: QVQLVQSGAEVKKPGSSVKVSCKASGGTFSNYAISWVRQAPGQGLEWMGGIIPIFGTANYAQKFQGRVTITADESTSTAYMELSSLRSEDTAVYYCARDTLYSSGAYYGYNVWGQGTMVTVSS
VL: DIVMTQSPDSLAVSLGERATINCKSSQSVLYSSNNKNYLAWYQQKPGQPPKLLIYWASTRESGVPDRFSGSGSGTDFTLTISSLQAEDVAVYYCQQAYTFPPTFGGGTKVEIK
For B18, the “Cell Binding (FOB)” value [1] was 113 fold over background and the “Cell Binding (FOB)” value [2] was 89 fold over background.

B19: 27571 (antibody, V domains shown)
VH: B4 VH with V20A, P21S, E42G, Q65R, A79T, G98R, K107R, V116M
VL: EIVMTQSPATLSVSPGERATLSCRASQSVGSNLAWYQQKPGQAPRLLIYGASTRATGIPARFSGSGSGTEFTLTISSLQSEDFAVYYCQQYLIWPLTFGGGTKVEIK
B19 was tested, and the “Cell Binding (FOB)” value [1] was 1610 fold over background and the “Cell Binding (FOB)” value [2] was 1400 fold over background.

B20: 31393 (antibody, human IgG4 S228P, kappa, V domains shown)
VH: B4 VH with P21S, S30E, A33G, E42G, I54E, T57I, A79T, G98R, K107R, V116M
VL: B14 VL with L91Y, T92L, K93L
In the case of B20, the “Cell Binding (FOB)” value [1] is reported as 2960 fold over background and the “Cell Binding (FOB)” value [2] is reported as 1060 fold over background.
